This passage reports Kd results from PMC9736779.

This data set concerns the target nucleolin (NCL) (Homo sapiens) (UniProt P19338). The data set can be described thus: SPR. As to conditions: SPR (Biacore X-100, CM5): 10 mM HEPES, 70 mM KCl, pH 7.4, 25 C, analyte 5-500 uM, two-state reaction fit. For orientation: Surface plasmon resonance follows binding to a sensor surface in real time, without labels.

nucleolin (NCL) (Homo sapiens), sequence (P19338 whole entry): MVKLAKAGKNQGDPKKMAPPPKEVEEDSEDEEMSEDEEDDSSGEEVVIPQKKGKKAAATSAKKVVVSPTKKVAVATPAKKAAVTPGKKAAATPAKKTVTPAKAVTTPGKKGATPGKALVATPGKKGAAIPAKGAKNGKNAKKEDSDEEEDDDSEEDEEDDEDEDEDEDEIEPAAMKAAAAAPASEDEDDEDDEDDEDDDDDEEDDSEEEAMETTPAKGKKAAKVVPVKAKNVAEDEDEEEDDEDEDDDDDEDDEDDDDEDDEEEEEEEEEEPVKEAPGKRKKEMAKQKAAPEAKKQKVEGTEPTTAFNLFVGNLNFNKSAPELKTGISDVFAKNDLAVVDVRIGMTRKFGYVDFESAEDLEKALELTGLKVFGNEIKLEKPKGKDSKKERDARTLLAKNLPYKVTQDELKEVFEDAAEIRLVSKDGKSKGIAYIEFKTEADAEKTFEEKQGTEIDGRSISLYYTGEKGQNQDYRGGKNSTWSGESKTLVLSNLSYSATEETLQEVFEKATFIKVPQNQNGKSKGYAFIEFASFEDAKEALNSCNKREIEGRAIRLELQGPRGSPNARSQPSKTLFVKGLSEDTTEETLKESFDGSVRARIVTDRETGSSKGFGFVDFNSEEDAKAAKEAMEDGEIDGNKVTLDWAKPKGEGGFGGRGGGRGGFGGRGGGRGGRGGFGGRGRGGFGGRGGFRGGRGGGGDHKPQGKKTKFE

By Kd is commonly meant the free concentration of one partner at which half of the binding sites on the other are occupied at equilibrium, for simple one-to-one binding. Low values mean higher affinity, high ones lower affinity. On to GGGGNNGGGGTGTGGGGTTGGGG [TBAG41S], for which the Kd (N at 5,6 = abasic site mimic (dSpacer, 1',2'-dideoxyribose)) turned out to be 41.5 µM.
GGGGTTGGGGNNNGGGGTTGGGG [TBAG4GS]: where the note is “N at 11-13 = abasic site mimic (dSpacer, 1',2'-dideoxyribose)”, the Kd stood at 32.2 µM.
